From PMC5726015, “Selection, characterization, and thermal stabilization of llama single domain antibodies towards Ebola virus glycoprotein” (Microbial Cell Factories, 2017)
Numbering of substitutions follows the chain as printed.

Legend:
[1] = target: Recombinant EBOV GP without transmembrane domain (Zaire ebolavirus, strain of GP not …, UniProt Q05320)
[2] = target: T1, Recombinant EBOV GP without transmembrane domain (Zaire ebolavirus, strain of GP not …, UniProt Q05320); assay: SPR; settings: both partners purified
T1 construct: also called recombinant GP; EBOV rGPdTM; source: bought: IBT Bioservices

[3] = target: T1, Recombinant EBOV GP without …; assay: SPR; settings: both partners purified; remark: listed apart in the source

B1: R2A1 (VHH)
VHH: EVQLQASGGGLVQARGSLQLSCAAPGRPVRTYTMGWFRQAPGKEREFVAANNWRGTRYAGSVRGRFSISRDNSKNTVYLQMNSLKPEDTAVYYCACAVTADLLLSGNYFRGDDYDYWGQGTQVTVS
[1]
  binding result: binds

B2: R2E4 (VHH)
VHH: B1 VHH with R15G
[1]
  binding result: binds

B3: R3G10 (VHH)
VHH: B1 VHH with L11S, R15G, I68T
[1]
  binding result: binds

B4: R3C11 (VHH)
VHH: B1 VHH with E1D, R15G, K43E, I68V, F109Y, Q119L
[1]
  binding result: binds

B5: R3H8 (VHH)
VHH: B1 VHH with R15G, R27H
[1]
  binding result: binds

B6: EBOV-GP-A8 (VHH)
VHH: B1 VHH with V12A, R15G
notes: also called Bt-EBOV-GP-A8
[2]
  Kd: 2.3 nM
  koff: 7.2e-05 s⁻¹
  kon: 31000 M⁻¹ s⁻¹

B7: R2B4 (VHH)
VHH: B1 VHH with R15G, V98E
[1]
  binding result: binds

B8: R2E6 (VHH)
VHH: B1 VHH with E1D, R15G, K43M, Y58H
[1]
  binding result: binds

B9: EBOV-GP-D1 (VHH)
VHH: EVQLQASGGGSVPPGGSLRLSCTASLRAFSTYTMGWFRQAPGKEREFVAASNWRGTDFHDSVRGRFIISRDNTEKTVDLQMNSLKPEDTAIYYCAADGSTWLKRSDYSYWGQGTQVTVS
[2]
  Kd: 11 nM
  koff: 0.00033 s⁻¹
  kon: 30000 M⁻¹ s⁻¹

B10: EBOV-GP-B5 (VHH)
VHH: B9 VHH with S11L, P13Q, P14A, R63K, E74K
[2]
  Kd: 11 nM
  koff: 0.00037 s⁻¹
  kon: 34000 M⁻¹ s⁻¹

B11: R2H1 (VHH)
VHH: EVLLQASGGGLVQPGGSLRLSCAASGLIFSINVMGWYRQTPGKQRELVASISRDDSTKYADSVKGRFTISRDNAKNTVYLQMNSLKPEDTAVYYCNTQTEGPVADWGTSHYDYWGQGTQVTVS
[1]
  binding result: binds

B12: EBOV-GP-G6-neg+ (VHH)
VHH: DVQLVESGGGLVQAGGSLRISCAASGGALSDYNMGWFRQAPGKEREFVCVVTWSGGSTRYADSVNGRFTCSRDNAKNTVYLQMNSLKPEDTAVYYCAAAPLTPFQSLGDMKAYNYWGQGTQVTVSS
notes: also called Bt-sdAb-neg+
[3]
  Kd: 44 nM
  koff: 0.00015 s⁻¹
  kon: 3500 M⁻¹ s⁻¹

B13: EBOV-GP-C12 (VHH)
VHH: EVQLQASGGGLVQPGGSLRLSCTASGSIFSINAMGWYRQTPRKERELVAAISEGGSTKYGDSVKGRFTISRDFAKNTQMVYLQMNSLKAEDTAVYYCKAQTEGPIADWGTSQYEYWGQGTQVTVS
[2]
  Kd: 26.8 nM
  koff: 8.71e-05 s⁻¹
  kon: 3280 M⁻¹ s⁻¹

B14: R2D10 (VHH)
VHH: EVQLQASGGGLVEPGGPLRLSCAVSGINFNINHWGWYRQAPGKQREWVATIAIGGATDYADSLKGRFTISRDNMKNTVYLQMNSLRPEDTAVYYCNGVGSKWSDRWGQGTQVTVS
[1]
  binding result: binds

B15: R2G2 (VHH)
VHH: B14 VHH with P17S
[1]
  binding result: binds

B16: R3F8 (VHH)
VHH: B14 VHH with P17S, L63V
[1]
  binding result: binds

B17: R2C8 (VHH)
VHH: B14 VHH with P17S, G55S, T68A, G107D
[1]
  binding result: binds

B18: EBOV-GP-A8-neg+ (VHH)
VHH: EVQLVESGGGLVQAGDSLQLSCAAPGRPVRTYTMGWFRQAPGKEREFVCANNWRGTRYAGSVRGRFSCSRDNSKNTVYLQMNSLKPEDTAVYYCACAVTADLLLSGNYFRGDDYDYWGQGTQVTVSS
[3]
  Kd: 0.95 nM
  koff: 5.8e-05 s⁻¹
  kon: 61000 M⁻¹ s⁻¹

B19: EBOV-GP-A8-fneg+ (VHH)
VHH: B18 VHH with C96S
notes: also called Bt-sdAb-neg+
[3]
  Kd: 0.69 nM
  koff: 9.1e-05 s⁻¹
  kon: 130000 M⁻¹ s⁻¹

B20: EBOV-GP-H7-neg+ (VHH)
VHH: DVQLVESGGGLVQAGGSLRLSCAASSGTFSSYTMGWFRQAPGKERELVCRLSQSLTTLYADSVKGRFTCSRDNAENTVYLQMNSLKPEDTGVYYCAAHPGTYGSAWLISPHDYAYWGQGTQVTVSS
notes: also called EBOV-H7-neg+; Bt-sdAb-neg+
[3]
  Kd: 40 nM
  koff: 0.0014 s⁻¹
  kon: 35000 M⁻¹ s⁻¹

B21: EBOV-GP-G6 (VHH)
VHH: DVQLQASGGGLVQAGGSLRISCAASGGALSDYNMGWFRQAPGKEREFVAVVTWSGGSTRYADSVNGRFTISRDNAKNTVYLQMNSLKPEDTAVYYCAAAPLTPFQSLGDMKAYNYWGQGTQVTVS
[2]
  Kd: 2 nM
  koff: 0.00015 s⁻¹
  kon: 70000 M⁻¹ s⁻¹

B22: R3F12 (VHH)
VHH: DVQLQASGGGLVQAGGSLRLSCAASSGTFSSYTMGWFRQAPGKERELVARLSQSLTTLYADSVKGRFTISRDNAENTVYLQMNSLKPEDTGVYYCAAHPGTYGSAWLISPHDYAYWGQGAQVTVS
[1]
  binding result: binds

B23: EBOV-GP-H7 (VHH)
VHH: B22 VHH with A120T
[2]
  Kd: 17 nM
  koff: 0.0003 s⁻¹
  kon: 17000 M⁻¹ s⁻¹

B24: R2H11 (VHH)
VHH: EVQLQASGGGLVQAGGSTRLSCAGSGSIFSINAMGWYRQTPEKQRELVATISSSGSTKYGDSVKGRFTISRDNAKNTVYLQMNSLKPEDTAVYYCNTQTAGPVADWGTSHYDYWGQGVQVTVS
[1]
  binding result: binds

B25: EBOV-GP-E7 (VHH)
VHH: B24 VHH with A14P, G15R, T18L, G24A, P102L
[2]
  Kd: 34 nM
  koff: 0.00011 s⁻¹
  kon: 3500 M⁻¹ s⁻¹

B26: R3B7 (VHH)
VHH: DVQLQASGGGLVQTGGSLRLACAGSGRSFNNYGMGWFRQAPGKERQFVAAISGNDHTTHYSDSVKGRFTISRDNAKSTVYLQMNSLKPEDTAVYYCAADRLGSFFFPRASPSDYGYWGQGTQVTVS
[1]
  binding result: binds

B27: EBOV-GP-B11 (VHH)
VHH: B26 VHH with D1E, S77T
[2]
  Kd: 35.9 nM
  koff: 0.00321 s⁻¹
  kon: 89800 M⁻¹ s⁻¹
